Laboratory results as given in patent publication US7528244.

Target: T1, caspase-3, P42574
T1 chain: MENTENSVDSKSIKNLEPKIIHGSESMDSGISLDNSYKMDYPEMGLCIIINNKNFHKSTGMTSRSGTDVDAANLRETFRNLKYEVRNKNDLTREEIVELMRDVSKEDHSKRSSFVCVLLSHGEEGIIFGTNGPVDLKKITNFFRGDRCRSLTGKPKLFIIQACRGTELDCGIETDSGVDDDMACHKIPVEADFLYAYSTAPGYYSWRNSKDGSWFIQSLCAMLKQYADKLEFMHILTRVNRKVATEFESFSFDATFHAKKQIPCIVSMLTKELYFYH

B1: caspase-8 (217-479) (protein)
chain: SESQTLDKVYQMKSKPRGYCLIINNHNFAKAREKVPKLHSIRDRNGTHLDAGALTTTFEELHFEIKPHDDCTVEQIYEILKIYQLMDHSNMDCFICCILSHGDKGIIYGTDGQEAPIYELTSQFTGLKCPSLAGKPKVFFIQACQGDNYQKGIPVETDSEEQPYLEMDLSSPQTRYIPDEADFLLGMATVNNCVSYRNPAEGTWYIQSLCQSLRERCPRGDDILTILTEVNYEVSNKDDKKNMGKQMPQPTFTLRKKLVFPSD
  processing of 35S-labeled caspase-3 precursor by in vitro translated protein: In vitro translated Casper (192-480) could not process caspase-3, whereas in vitro translated caspase-8 (217-479) could
